Test results reported in patent US20060153844A1, “Methods to trigger, maintain and manipulate immune responses by targeted administration of biological response modifiers into lymphoid organs” (priority 2004, published 2006).

System: PLA2-specific IgG2a and IgG1 antibodies
Assay: anti-PLA2 IgG2a, IgG1 and IgE in sera after intralymphatic PLA2 plus TLR ligand
Assay type: in vivo, CBA/J mice
Protocol: The compounds were mixed within an hour before injection into the inguinal lymph node.
The sera were obtained over 13 weeks and analyzed by ELISA for anti-PLA2 IgG2a (FIG. 10A) and IgG1 (FIG. 10B). The ratio of IgG2a to IgG1 titers was calculated as a measure for Th1/Th2 immune response balance (FIG. 10C). […] Pre-immunization levels of anti-PLA2 antibodies were measured on sera from five mice taken the day before first injection.

B1: flagellin: flagellin, S. thyphimurium, TLR 5 ligand (protein, UniProt P06179 2-495, looked up)
Flagellin: AQVINTNSLSLLTQNNLNKSQSALGTAIERLSSGLRINSAKDDAAGQAIANRFTANIKGLTQASRNANDGISIAQTTEGALNEINNNLQRVRELAVQSANSTNSQSDLDSIQAEITQRLNEIDRVSGQTQFNGVKVLAQDNTLTIQVGANDGETIDIDLKQINSQTLGLDTLNVQQKYKVSDTAATVTGYADTTIALDNSTFKASATGLGGTDQKIDGDLKFDDTTGKYYAKVTVTGGTGKDGYYEVSVDKTNGEVTLAGGATSPLTGGLPATATEDVKNVQVANADLTEAKAALTAAGVTGTASVVKMSYTDNNGKTIDGGLAVKVGDDYYSATQNKDGSISINTTKYTADDGTSKTALNKLGGADGKTEVVSIGGKTYAASKAEGHNFKAQPDLAEAAATTTENPLQKIDAALAQVDTLRSDLGAVQNRFNSAITNLGNTVNNLTSARSRIEDSDYATEVSNMSRAQILQQAGTSVLAQANQVPQNVLSLLR
kinetics of the antibody production (time of maximum titers) (i.ln. with 0.1 μg PLA2, sera over 13 weeks): peak titers were delayed
anti-PLA2 antibody isotypes induced (IgG2a, IgG1) (i.ln. with 0.1 μg PLA2, three injections): induced both IgG2a and IgG1
